Reference: patent US20220017635A1 (Kyowa Kirin, published 2022)

T1: huTfR with mouse apical domain (human/mouse chimera, UniProt P02786 89-760)
T1 construct: His tag added; also called chimeric protein of human TfR extracellular domain with mouse apical domain
T1 chain: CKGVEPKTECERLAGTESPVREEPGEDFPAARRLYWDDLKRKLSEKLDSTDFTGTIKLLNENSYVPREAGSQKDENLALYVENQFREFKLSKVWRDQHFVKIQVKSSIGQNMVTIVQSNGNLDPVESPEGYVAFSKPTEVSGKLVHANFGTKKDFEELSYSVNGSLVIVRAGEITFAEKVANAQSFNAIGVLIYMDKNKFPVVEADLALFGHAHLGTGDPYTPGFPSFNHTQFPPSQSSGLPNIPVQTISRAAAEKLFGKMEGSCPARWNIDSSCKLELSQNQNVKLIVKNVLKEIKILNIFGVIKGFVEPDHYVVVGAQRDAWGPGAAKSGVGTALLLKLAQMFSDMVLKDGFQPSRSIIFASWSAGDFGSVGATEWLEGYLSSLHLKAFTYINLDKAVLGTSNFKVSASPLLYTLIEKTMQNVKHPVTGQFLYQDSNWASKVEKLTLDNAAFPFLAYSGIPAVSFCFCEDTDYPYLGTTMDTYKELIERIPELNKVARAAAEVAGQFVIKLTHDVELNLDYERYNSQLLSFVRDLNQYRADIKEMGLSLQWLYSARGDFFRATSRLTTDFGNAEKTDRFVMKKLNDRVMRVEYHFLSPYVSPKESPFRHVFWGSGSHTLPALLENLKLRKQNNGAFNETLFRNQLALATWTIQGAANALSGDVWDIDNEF

T2: chimeric TfR A02 (human/mouse chimera, UniProt P02786 89-760)
T2 construct: also called D352S-S355A-D356R-K358N
T2 chain: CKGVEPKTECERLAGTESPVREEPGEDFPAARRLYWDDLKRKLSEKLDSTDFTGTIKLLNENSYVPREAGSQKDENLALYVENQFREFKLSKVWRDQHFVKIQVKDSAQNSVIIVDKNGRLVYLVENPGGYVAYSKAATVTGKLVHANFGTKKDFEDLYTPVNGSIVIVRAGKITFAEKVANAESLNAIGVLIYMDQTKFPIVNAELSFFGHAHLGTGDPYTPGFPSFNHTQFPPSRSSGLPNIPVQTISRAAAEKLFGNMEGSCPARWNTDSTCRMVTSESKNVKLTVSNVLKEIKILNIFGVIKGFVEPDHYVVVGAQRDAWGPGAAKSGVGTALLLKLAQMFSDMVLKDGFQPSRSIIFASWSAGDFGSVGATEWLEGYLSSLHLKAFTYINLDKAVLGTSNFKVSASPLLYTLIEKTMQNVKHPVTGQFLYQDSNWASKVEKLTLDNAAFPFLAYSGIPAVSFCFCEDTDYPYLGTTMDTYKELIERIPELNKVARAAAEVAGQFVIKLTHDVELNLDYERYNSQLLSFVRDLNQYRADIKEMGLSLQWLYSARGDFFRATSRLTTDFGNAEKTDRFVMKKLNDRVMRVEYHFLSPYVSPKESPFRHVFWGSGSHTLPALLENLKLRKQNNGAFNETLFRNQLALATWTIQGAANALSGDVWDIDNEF

T3: monkey TfR on CHO cells (monkey)
T3 construct: also called monkey TfR/CHO cells
T3 chain: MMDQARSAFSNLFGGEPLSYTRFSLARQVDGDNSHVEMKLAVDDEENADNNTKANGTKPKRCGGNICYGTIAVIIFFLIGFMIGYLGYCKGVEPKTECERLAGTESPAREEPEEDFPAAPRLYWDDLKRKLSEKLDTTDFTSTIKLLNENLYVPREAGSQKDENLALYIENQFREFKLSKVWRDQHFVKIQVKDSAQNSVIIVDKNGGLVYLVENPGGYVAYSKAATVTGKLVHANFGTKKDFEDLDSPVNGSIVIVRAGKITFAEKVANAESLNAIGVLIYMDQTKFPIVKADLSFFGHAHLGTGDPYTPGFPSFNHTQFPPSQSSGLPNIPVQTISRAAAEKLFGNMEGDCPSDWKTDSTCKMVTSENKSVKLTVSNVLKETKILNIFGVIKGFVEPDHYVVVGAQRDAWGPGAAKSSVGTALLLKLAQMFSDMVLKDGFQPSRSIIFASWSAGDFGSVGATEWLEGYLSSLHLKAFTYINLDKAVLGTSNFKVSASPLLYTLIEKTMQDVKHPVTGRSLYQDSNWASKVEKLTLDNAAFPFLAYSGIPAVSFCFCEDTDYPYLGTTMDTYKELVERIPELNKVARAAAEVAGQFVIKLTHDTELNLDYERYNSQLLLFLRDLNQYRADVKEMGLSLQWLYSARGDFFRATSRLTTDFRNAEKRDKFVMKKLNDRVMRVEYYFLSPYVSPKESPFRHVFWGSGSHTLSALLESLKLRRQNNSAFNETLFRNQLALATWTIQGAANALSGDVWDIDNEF

T4: huTfR with mouse protease-like domain (human/mouse chimera)
T4 construct: His tag added; also called chimeric protein of human TfR extracellular domain with mouse protease-like domain
T4 chain: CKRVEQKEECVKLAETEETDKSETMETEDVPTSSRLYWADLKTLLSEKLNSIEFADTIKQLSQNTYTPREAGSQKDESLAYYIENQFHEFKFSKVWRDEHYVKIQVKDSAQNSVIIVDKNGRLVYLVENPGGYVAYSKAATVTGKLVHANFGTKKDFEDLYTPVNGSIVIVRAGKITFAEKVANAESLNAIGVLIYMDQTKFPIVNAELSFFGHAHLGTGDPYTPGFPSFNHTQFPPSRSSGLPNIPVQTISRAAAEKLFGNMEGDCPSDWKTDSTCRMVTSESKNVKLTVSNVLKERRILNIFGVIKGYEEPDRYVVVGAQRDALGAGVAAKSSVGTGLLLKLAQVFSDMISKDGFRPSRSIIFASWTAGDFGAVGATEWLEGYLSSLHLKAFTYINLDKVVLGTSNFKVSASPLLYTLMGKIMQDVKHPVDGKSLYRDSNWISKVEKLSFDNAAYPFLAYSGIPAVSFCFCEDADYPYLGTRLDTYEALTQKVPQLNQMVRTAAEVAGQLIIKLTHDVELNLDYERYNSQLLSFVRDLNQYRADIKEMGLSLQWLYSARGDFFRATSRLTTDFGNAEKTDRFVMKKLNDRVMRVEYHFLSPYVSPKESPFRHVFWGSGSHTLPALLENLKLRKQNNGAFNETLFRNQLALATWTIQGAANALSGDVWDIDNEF

B1: cyno186 (antibody, V domains shown)
VH: QVQLVESGGEFVQPGGSLRLSCAASGFPFKGYAMNWVRQAPGKGLEWVSRISNGGSYIDYADSVKGRFTISRDNSKNTLYLQIDSLRTEDTAVYYCAKAKDAYRWNNAIDEWGQGTLVTVSS
VL: not shown
notes: also called anti-TfR antibody cyno186
B2: 2230 (antibody, V domains shown)
VH: QVQLQESGPGLVKPSETLSLTCTVSGGSISSYYWSWIRQPPGKGLEWIGYIYYSGSTNYNPSLKSRVTISLDTSKNQFSLRLSSVTTADTALYYCTREAGYYDSSGYYGFDYWGQGTLVTVSS
VL: DIQMTQSPSSLSASVGDRVTITCRASQGISSWLAWYQQKPEKAPKSLIYAASSLQSGVPSRFSGSGSGTDFTLTISSLQPEDFATYFCQQYYNYPYTFGQGTKLEIK
notes: From a hybridoma; light chain other than A27; also called clone 2230; anti-TfR antibody 2230
B3: T14 (antibody, V domains shown)
VH: EVQLVESGGGLVQPGGSLRLSCVVSGGTFSNFNMNWVRQAPGKGLEWVSYISGSSSTIYYADSVKGRFTISRDNAKNSLYLQMNSLRDEDTAVYYCVSSSWYYWGQGTLVTVSS
VL: not shown
notes: IgG4PE or IgG4PE R409K constant region; also called anti-TfR antibody T14

Experiments:
mouse TfR on CHO cells = target: T5, mouse TfR on CHO cells (mouse, UniProt Q62351 1-763); experiment: flow cytometry on mouse TfR/CHO cells
T5 construct: also called mouse TfR/CHO
Protocol: Subsequently, an epitope analysis for various types of TfR antibodies was carried out.

[1] = target: T1, huTfR with mouse apical domain; experiment: ELISA on immobilized chimeric TfR
Protocol: (§1) ELISA was carried out by the following method. To a 96-well immunoplate (NUNC, Inc.) on which an antigen protein was immobilized, 1% (w/v) BSA-PBS(−) pH 7.0 without KCl (hereinafter referred to as blocking solution, Nacalai Tesque, Inc.) was added to perform blocking at room temperature, and thereafter, the anti-TfR antibody diluted with the same solution was added thereto and a reaction was allowed to proceed at room temperature for 1 hour. Thereafter, washing was performed with 0.05% (w/v)-tPBS (1×) without KCl (pH 7.2) (hereinafter referred to as washing solution, Nacalai Tesque, Inc.), Anti-Human IgG (Fc) Goat IgG Fab″-HRP (IBL, Inc.) diluted with the blocking solution was added thereto, and a reaction was allowed to proceed at room temperature for 1 hour. Thereafter, washing was performed with the washing solution, and 1-Step (registered trademark) Ultra TMB-ELISA Substrate Solution (Thermo, Inc.) was added thereto, and a reaction was allowed to proceed at room temperature. The coloring reaction was stopped by adding a 5 N HCl solution, and an absorbance at a wavelength of 450 nm (reference wavelength: 570 nm) was measured using a plate reader (EPOCH 2: BioTek Instruments, Inc.).
(§2) Further, a value obtained by subtracting the absorbance at the reference wavelength of 570 nm from the absorbance at a wavelength of 450 nm was regarded as the binding activity to any of various types of antigen proteins, and a case where a value obtained by dividing the binding activity to any of various types of chimeric TfR by the binding activity to His-huTfR was 0.5 or more was denoted by ++, a case where the value was 0.2 or more and less than 0.5 was denoted by +, and a case where the value was less than 0.2 was denoted by −.

chimeric TfR A02 [2] = target: T2, chimeric TfR A02; experiment: ELISA on immobilized chimeric TfR
Protocol: as §1, §2

chimeric TfR A07 [3] = target: T6, chimeric TfR A07 (human/mouse chimera, UniProt P02786 89-760); experiment: ELISA on immobilized chimeric TfR
T6 construct: also called M365L-V366E-E369Q
Protocol: as §1, §2

chimeric TfR A14 [4] = target: T7, chimeric TfR A14 (human/mouse chimera, UniProt P02786 89-760); experiment: ELISA on immobilized chimeric TfR
T7 construct: also called D204Q-K205S-E369Q
Protocol: as §1, §2

monkey TfR on CHO cells = target: T3, monkey TfR on CHO cells; experiment: flow cytometry of monoclonal phage (scFv) on monkey TfR/CHO cells
Protocol: After the reaction was allowed to proceed under 4° C. for 30 minutes, each well was washed 3 times with PBS-T.

[5] = target: T4, huTfR with mouse protease-like domain; experiment: ELISA on immobilized chimeric TfR; grade = binding relative to His-huTfR (++ 0.5 or more, + 0.2 to less than 0.5)
Protocol: as §1, §2

chimeric TfR A03 = target: T8, chimeric TfR A03 (human/mouse chimera, UniProt P02786 89-760); experiment: as above
T8 construct: also called D245E-K261E
Protocol: as §1, §2

chimeric TfR A04 = target: T9, chimeric TfR A04 (human/mouse chimera, UniProt P02786 89-760); experiment: as above
T9 construct: also called D245E-K261E-D356R
Protocol: as §1, §2

chimeric TfR A05 [6] = target: T10, chimeric TfR A05 (human/mouse chimera, UniProt P02786 89-760); experiment: as above
T10 construct: also called P249S-L274F
Protocol: as §1, §2

[7] = target: T4, huTfR with mouse protease-like domain; experiment: ELISA on immobilized chimeric TfR
Protocol: as §1, §2

[8] = target: T1, huTfR with mouse apical domain; experiment: ELISA on immobilized chimeric TfR; grade = binding relative to His-huTfR (++ 0.5 or more, + 0.2 to less than 0.5)
Protocol: as §1, §2

chimeric TfR A02 [9] = target: T2, chimeric TfR A02; experiment: as above
Protocol: as §1, §2

chimeric TfR A07 [10] = target: T6, chimeric TfR A07; experiment: as above
Protocol: as §1, §2

chimeric TfR A14 [11] = target: T7, chimeric TfR A14; experiment: as above
Protocol: as §1, §2

chimeric TfR A05 [12] = target: T10, chimeric TfR A05; experiment: ELISA on immobilized chimeric TfR
Protocol: as §1, §2

Binder | binding result (mouse TfR on CHO cells) | ratio of ELISA binding activity (A450-A570) to chimeric TfR over that to His-huTfR [1] [ratio] | ratio of ELISA binding activity (A450-A570) to chimeric TfR over that to His-huTfR (chimeric TfR A02 [2]) [ratio] | ratio of ELISA binding activity (A450-A570) to chimeric TfR over that to His-huTfR (chimeric TfR A07 [3]) [ratio] | ratio of ELISA binding activity (A450-A570) to chimeric TfR over that to His-huTfR (chimeric TfR A14 [4]) [ratio] | binding result (monkey TfR on CHO cells) | ratio of ELISA binding activity (A450-A570) to chimeric TfR over that to His-huTfR [5] [ratio] | ratio of ELISA binding activity (A450-A570) to chimeric TfR over that to His-huTfR (chimeric TfR A03) [ratio] | ratio of ELISA binding activity (A450-A570) to chimeric TfR over that to His-huTfR (chimeric TfR A04) [ratio] | ratio of ELISA binding activity (A450-A570) to chimeric TfR over that to His-huTfR (chimeric TfR A05 [6]) [ratio] | ratio of ELISA binding activity (A450-A570) to chimeric TfR over that to His-huTfR [7] [ratio] | ratio of ELISA binding activity (A450-A570) to chimeric TfR over that to His-huTfR [8] [ratio] | ratio of ELISA binding activity (A450-A570) to chimeric TfR over that to His-huTfR (chimeric TfR A02 [9]) [ratio] | ratio of ELISA binding activity (A450-A570) to chimeric TfR over that to His-huTfR (chimeric TfR A07 [10]) [ratio] | ratio of ELISA binding activity (A450-A570) to chimeric TfR over that to His-huTfR (chimeric TfR A14 [11]) [ratio] | ratio of ELISA binding activity (A450-A570) to chimeric TfR over that to His-huTfR (chimeric TfR A05 [12]) [ratio]
B1 | no binding | < 0.2 | < 0.2 | < 0.2 | < 0.2 | binds | ≥ 0.5 | ≥ 0.5 | 0.2 to 0.5 | ≥ 0.5 | – | – | – | – | – | –
B2 | no binding | – | – | – | – | – | – | ≥ 0.5 | ≥ 0.5 | ≥ 0.5 | < 0.2 | ≥ 0.5 | ≥ 0.5 | ≥ 0.5 | ≥ 0.5 | –
B3 | – | < 0.2 | – | – | – | – | ≥ 0.5 | ≥ 0.5 | 0.2 to 0.5 | – | – | – | ≥ 0.5 | ≥ 0.5 | ≥ 0.5 | < 0.2
